Measurements as given in patent publication US20250161408A1, “PEPTIDIC INHIBITORS OF AMYLOID SELF- AND CROSS-ASSEMBLY” (published 2025).
Non-standard residues stand in square brackets, D forms with d. NMeF = CN[C@@H](Cc1ccccc1)C(=O)O; NMeL = CN[C@@H](CC(C)C)C(=O)O; NMeV = CN[C@H](C(=O)O)C(C)C; Nle = CCCC[C@H](N)C(=O)O

B1: F3-LF (peptide)
peptide: H-QK[NMeL]V[NMeF]FAEDFFFNKGAIIGL[Nle]VGGVV-OH
SMILES: CCCC[C@H](NC(=O)[C@H](CC(C)C)NC(=O)CNC(=O)[C@@H](NC(=O)[C@@H](NC(=O)[C@H](C)NC(=O)CNC(=O)[C@H](CCCCN)NC(=O)[C@H](CC(N)=O)NC(=O)[C@H](Cc1ccccc1)NC(=O)[C@H](Cc1ccccc1)NC(=O)[C@H](Cc1ccccc1)NC(=O)[C@H](CC(=O)O)NC(=O)[C@H](CCC(=O)O)NC(=O)[C@H](C)NC(=O)[C@H](Cc1ccccc1)NC(=O)[C@H](Cc1ccccc1)N(C)C(=O)[C@@H](NC(=O)[C@H](CC(C)C)N(C)C(=O)[C@H](CCCCN)NC(=O)[C@@H](N)CCC(N)=O)C(C)C)[C@@H](C)CC)[C@@H](C)CC)C(=O)N[C@H](C(=O)NCC(=O)NCC(=O)N[C@H](C(=O)N[C@H](C(=O)O)C(C)C)C(C)C)C(C)C
B2: F3-VF (peptide)
peptide: H-QKL[NMeV]F[NMeF]AEDFFFNKGAIIGL[Nle]VGGVV-OH
SMILES: CCCC[C@H](NC(=O)[C@H](CC(C)C)NC(=O)CNC(=O)[C@@H](NC(=O)[C@@H](NC(=O)[C@H](C)NC(=O)CNC(=O)[C@H](CCCCN)NC(=O)[C@H](CC(N)=O)NC(=O)[C@H](Cc1ccccc1)NC(=O)[C@H](Cc1ccccc1)NC(=O)[C@H](Cc1ccccc1)NC(=O)[C@H](CC(=O)O)NC(=O)[C@H](CCC(=O)O)NC(=O)[C@H](C)NC(=O)[C@H](Cc1ccccc1)N(C)C(=O)[C@H](Cc1ccccc1)NC(=O)[C@H](C(C)C)N(C)C(=O)[C@H](CC(C)C)NC(=O)[C@H](CCCCN)NC(=O)[C@@H](N)CCC(N)=O)[C@@H](C)CC)[C@@H](C)CC)C(=O)N[C@H](C(=O)NCC(=O)NCC(=O)N[C@H](C(=O)N[C@H](C(=O)O)C(C)C)C(C)C)C(C)C
B3: L3-VF (peptide)
peptide: H-QKL[NMeV]F[NMeF]AEDLLLNKGAIIGL[Nle]VGGVV-OH
SMILES: CCCC[C@H](NC(=O)[C@H](CC(C)C)NC(=O)CNC(=O)[C@@H](NC(=O)[C@@H](NC(=O)[C@H](C)NC(=O)CNC(=O)[C@H](CCCCN)NC(=O)[C@H](CC(N)=O)NC(=O)[C@H](CC(C)C)NC(=O)[C@H](CC(C)C)NC(=O)[C@H](CC(C)C)NC(=O)[C@H](CC(=O)O)NC(=O)[C@H](CCC(=O)O)NC(=O)[C@H](C)NC(=O)[C@H](Cc1ccccc1)N(C)C(=O)[C@H](Cc1ccccc1)NC(=O)[C@H](C(C)C)N(C)C(=O)[C@H](CC(C)C)NC(=O)[C@H](CCCCN)NC(=O)[C@@H](N)CCC(N)=O)[C@@H](C)CC)[C@@H](C)CC)C(=O)N[C@H](C(=O)NCC(=O)NCC(=O)N[C@H](C(=O)N[C@H](C(=O)O)C(C)C)C(C)C)C(C)C
B4: Nle3-LF (peptide)
peptide: H-QK[NMeL]V[NMeF]FAED[Nle][Nle][Nle]NKGAIIGL[Nle]VGGVV-OH
SMILES: CCCC[C@H](NC(=O)[C@H](CC(=O)O)NC(=O)[C@H](CCC(=O)O)NC(=O)[C@H](C)NC(=O)[C@H](Cc1ccccc1)NC(=O)[C@H](Cc1ccccc1)N(C)C(=O)[C@@H](NC(=O)[C@H](CC(C)C)N(C)C(=O)[C@H](CCCCN)NC(=O)[C@@H](N)CCC(N)=O)C(C)C)C(=O)N[C@@H](CCCC)C(=O)N[C@@H](CCCC)C(=O)N[C@@H](CC(N)=O)C(=O)N[C@@H](CCCCN)C(=O)NCC(=O)N[C@@H](C)C(=O)N[C@H](C(=O)N[C@H](C(=O)NCC(=O)N[C@@H](CC(C)C)C(=O)N[C@@H](CCCC)C(=O)N[C@H](C(=O)NCC(=O)NCC(=O)N[C@H](C(=O)N[C@H](C(=O)O)C(C)C)C(C)C)C(C)C)[C@@H](C)CC)[C@@H](C)CC
B5: L3-LF (peptide)
peptide: H-QK[NMeL]V[NMeF]FAEDLLLNKGAIIGL[Nle]VGGVV-OH
SMILES: CCCC[C@H](NC(=O)[C@H](CC(C)C)NC(=O)CNC(=O)[C@@H](NC(=O)[C@@H](NC(=O)[C@H](C)NC(=O)CNC(=O)[C@H](CCCCN)NC(=O)[C@H](CC(N)=O)NC(=O)[C@H](CC(C)C)NC(=O)[C@H](CC(C)C)NC(=O)[C@H](CC(C)C)NC(=O)[C@H](CC(=O)O)NC(=O)[C@H](CCC(=O)O)NC(=O)[C@H](C)NC(=O)[C@H](Cc1ccccc1)NC(=O)[C@H](Cc1ccccc1)N(C)C(=O)[C@@H](NC(=O)[C@H](CC(C)C)N(C)C(=O)[C@H](CCCCN)NC(=O)[C@@H](N)CCC(N)=O)C(C)C)[C@@H](C)CC)[C@@H](C)CC)C(=O)N[C@H](C(=O)NCC(=O)NCC(=O)N[C@H](C(=O)N[C@H](C(=O)O)C(C)C)C(C)C)C(C)C
B6: Nle3-VF (peptide)
peptide: H-QKL[NMeV]F[NMeF]AED[Nle][Nle][Nle]NKGAIIGL[Nle]VGGVV-OH
SMILES: CCCC[C@H](NC(=O)[C@H](CC(=O)O)NC(=O)[C@H](CCC(=O)O)NC(=O)[C@H](C)NC(=O)[C@H](Cc1ccccc1)N(C)C(=O)[C@H](Cc1ccccc1)NC(=O)[C@H](C(C)C)N(C)C(=O)[C@H](CC(C)C)NC(=O)[C@H](CCCCN)NC(=O)[C@@H](N)CCC(N)=O)C(=O)N[C@@H](CCCC)C(=O)N[C@@H](CCCC)C(=O)N[C@@H](CC(N)=O)C(=O)N[C@@H](CCCCN)C(=O)NCC(=O)N[C@@H](C)C(=O)N[C@H](C(=O)N[C@H](C(=O)NCC(=O)N[C@@H](CC(C)C)C(=O)N[C@@H](CCCC)C(=O)N[C@H](C(=O)NCC(=O)NCC(=O)N[C@H](C(=O)N[C@H](C(=O)O)C(C)C)C(C)C)C(C)C)[C@@H](C)CC)[C@@H](C)CC

molecular target: FITC-Aβ42 (Homo sapiens (Human), UniProt P05067, N-terminal fluorescein-isothiocyanate-β-Ala); experiment: fluorescence spectroscopic titration of FITC-Aβ42 (5 nM, pH 7.4) with the ACM; app. KD
Description: (§1) Fluorescence spectroscopic studies were performed with a Jasco FP-6500 fluorescence spectrophotometer. Briefly, excitation was at 492 nm and spectra were measured between 500 and 600 nm. All titrations were performed in freshly made solutions of synthetic N-terminal fluorescently labeled peptide (5 nM) and various amounts of unlabeled peptide in 10 mM sodium phosphate buffer, pH 7.4 (1% HFIP) within 2-5 min following solution preparation. […] Apparent binding affinities (app. KDs) were estimated by using 1/1 binding models. However, due to the high self-assembly propensities of involved peptides more complex models might also apply.

Row | Binder | Kd [nM]
1 | B1 | 431
2 | B2 | 161
3 | B3 | 38
4 | B4 | 11.1
5 | B5 | 2.6
6 | B6 | 14.5

Molecular target: T1, Fluos-IAPP (human, UniProt P10997, N-terminal fluorescein)
T1 peptide: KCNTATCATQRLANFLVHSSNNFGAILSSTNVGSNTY
Experiment: fluorescence spectroscopic titration of Fluos-IAPP (5 nM, pH 7.4) with the ACM; app. KD
Description: On the right side of each figure panel, the corresponding binding curves are shown; data are means±SD from 3 binding curves. […] KDs (means±SD from 3 binding curves) are in Table 1.
as §1, with “apply. […] KDs are means (±SD) from three binding curves derived from three independent titration assays.” for “apply.”

Row | Binder | Kd [nM]
7 | B1 | 37.6
8 | B2 | 15
9 | B3 | 77.3
10 | B4 | 55.4
11 | B5 | 143
12 | B6 | 69.5

Molecular target: T2, Fluos-Nle3-VF (N-terminal 5,6-carboxyfluorescein; X = norleucine (Nle); N-methyl on Val18 and Phe20)
T2 peptide: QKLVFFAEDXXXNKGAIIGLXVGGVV
Experiment: self-assembly: fluorescence spectroscopic titration of Fluos-Nle3-VF (5 nM) with Nle3-VF; app. KD
Description: as §1, with “apply. […] KDs are means (±SD) from three binding curves derived from three independent titration assays.” for “apply.”

Row | Binder | Kd [nM]
13 | B6 | 51.9
